Test results: patent US20130231277A1 (NEW YORK UNIVERSITY, published 2013)
Each block holds one binder with its values, some of them ahead of it.

Key:
[1] = biological target: T1, 1:1 binary complex of FGFR1c ligand-binding domain and βKlotho ectodomain (human; murine, UniProt P11362 142-365; Q99N32 53-995); assay: SPR competition; FGF21 immobilized, complex mixed with the mutant at a molar ratio of 1:2 or 1:6 (FIG. 14B)
T1 construct: also called FGFR1c-βKlotho complex; FGFR1c-βKlotho; not shown: C-terminal FLAG tag
T1 sequence 1: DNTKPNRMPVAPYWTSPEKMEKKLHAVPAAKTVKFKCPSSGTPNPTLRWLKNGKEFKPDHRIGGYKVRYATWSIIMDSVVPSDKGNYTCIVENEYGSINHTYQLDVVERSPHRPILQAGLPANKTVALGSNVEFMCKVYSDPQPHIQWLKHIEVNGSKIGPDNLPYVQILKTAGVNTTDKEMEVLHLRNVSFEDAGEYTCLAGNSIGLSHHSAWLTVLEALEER
T1 sequence 2: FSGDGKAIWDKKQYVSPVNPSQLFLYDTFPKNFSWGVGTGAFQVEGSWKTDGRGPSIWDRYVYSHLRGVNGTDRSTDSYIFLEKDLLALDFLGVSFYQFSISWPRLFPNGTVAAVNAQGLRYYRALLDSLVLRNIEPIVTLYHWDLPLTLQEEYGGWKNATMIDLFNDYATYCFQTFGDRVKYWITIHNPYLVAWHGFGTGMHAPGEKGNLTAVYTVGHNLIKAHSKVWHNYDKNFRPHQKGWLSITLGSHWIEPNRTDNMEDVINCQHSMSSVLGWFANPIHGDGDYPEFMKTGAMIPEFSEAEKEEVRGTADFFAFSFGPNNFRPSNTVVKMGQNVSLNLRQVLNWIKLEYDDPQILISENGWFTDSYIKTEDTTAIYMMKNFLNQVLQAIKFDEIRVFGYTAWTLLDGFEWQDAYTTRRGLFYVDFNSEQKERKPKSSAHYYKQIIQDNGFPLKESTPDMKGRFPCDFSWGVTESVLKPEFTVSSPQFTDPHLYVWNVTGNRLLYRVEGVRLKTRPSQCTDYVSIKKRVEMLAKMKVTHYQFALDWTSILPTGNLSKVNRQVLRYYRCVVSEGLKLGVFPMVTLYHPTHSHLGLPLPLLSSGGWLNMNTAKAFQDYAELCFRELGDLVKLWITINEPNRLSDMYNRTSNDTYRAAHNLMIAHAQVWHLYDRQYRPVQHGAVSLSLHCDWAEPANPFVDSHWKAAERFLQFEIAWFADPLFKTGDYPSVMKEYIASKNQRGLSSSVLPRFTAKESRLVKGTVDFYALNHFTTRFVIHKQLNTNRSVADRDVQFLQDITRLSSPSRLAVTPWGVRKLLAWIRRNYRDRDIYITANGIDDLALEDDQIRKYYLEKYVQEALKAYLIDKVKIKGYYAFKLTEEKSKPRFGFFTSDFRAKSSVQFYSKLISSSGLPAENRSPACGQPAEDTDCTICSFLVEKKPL
Method: Increasing concentrations of FGF21 were mixed with a fixed concentration of FGFR1c-βKlotho complex, and the mixtures were passed over a FGF21 chip. […] In the experiments shown in FIGS. 14B-14C, FGFR1c-βKlotho complex was mixed with either mutant FGF21 or wild-type FGF21 at a molar ratio of 1:2 or 1:6, and the mixtures were injected over a FGF21 chip. The data shown in FIGS. 14A-14C are representative of two to three independent experiments.
(§1) SPR experiments were performed on a Biacore 2000 instrument (Biacore AB), and all the protein-protein and protein-peptide interactions were studied at 25° C. in HBS-EP buffer (10 mM HEPES-NaOH, pH 7.4, 150 mM NaCl, 3 mM EDTA, 0.005% (v/v) polysorbate 20). Proteins were immobilized by amine coupling on flow channels of research grade CM5 chips (Biacore AB). Proteins were injected over a CM5 chip at a flow rate of 50 μl min⁻¹, and at the end of each protein injection (180 s), HBS-EP buffer (50 μl min⁻¹) was flowed over the chip to monitor dissociation for 180 s. In experiments where βKlotho binding to FGFR was analyzed, the chip surface was then regenerated by injecting 50 μl of 2.0 M NaCl in 10 mM sodium/potassium phosphate, pH 6.5. In experiments where α/βKlotho binding to FGF19/21/23 or binding of the FGFR1c-βKlotho complex to FGF21 was studied, 2.0 M NaCl in 10 mM sodium acetate, pH 4.5 was used for chip regeneration.

[2] = biological target: T2, ectodomain of murine βKlotho (F53 to L995 of SEQ ID NO: 218) with a C-terminal FLAG tag (murine, UniProt Q99N32 53-995); assay: size-exclusion chromatography of the binary complex (FIG. 1A)
T2 construct: Expressed in HEK293 cells and purified from culture media; also called βKlotho ectodomain; not shown: C-terminal FLAG tag
T2 sequence: T1 sequence 2
Method: Size-exclusion chromatography experiments were performed on a HiLoad™ 16/60 Superdex™ 200 prep grade column (GE Healthcare) mounted on an ÄKTApurifier (GE Healthcare). […] Sample injection volume was 0.9 to 2.0 ml, and the flow rate was 1.0 ml min⁻¹. Protein retention times were determined by absorbance at 280 nm. The column was calibrated with ferritin (440 kDa), immunoglobulin G (150 kDa), albumin (69.3 kDa), ovalbumin (44.3 kDa), carbonic anhydrase (28.8 kDa), and ribonuclease A (13.7 kDa). The void volume was determined using blue dextran 2,000, and the column volume was measured with acetone. To examine ternary complex formation between FGF21, FGFR1c, and βKlotho, 2.72 μmol of the 1:1 binary complex of FGFR1c ligand-binding domain and βKlotho ectodomain were mixed with 9.25 μmol of FGF21, and the mixture was applied to the size-exclusion column. The retention time of the FGFR1c-βKlotho complex alone served as a reference point. To examine ternary complex formation between FGF19, FGFR4, and βKlotho, 2.46 μmol of the 1:1 binary complex of FGFR4 ligand-binding domain and βKlotho ectodomain were mixed with 8.51 μmol of FGF19, and the mixture was applied to the size-exclusion column. The retention time of the FGFR4-βKlotho complex alone served as a reference point. […]

[3] = biological target: T2, ectodomain of murine βKlotho (F53 to …); assay: SPR competition; FGF19 or FGF21 immobilized, fixed βKlotho ectodomain mixed with increasing peptide (FIGS. 5B, 5F)
Description: Residues that are identical between FGF19 and FGF21 are shaded gray. Note that 40% of these residues map to the most C-terminal sequence. […] FGF19 was immobilized on a biosensor chip, and mixtures of a fixed concentration of βKlotho ectodomain with increasing concentrations of FGF19^C-tail were passed over the chip. […] Mixtures of a fixed concentration of βKlotho ectodomain with increasing concentrations of FGF21^C-tail were passed over a biosensor chip onto which FGF19 had been immobilized. […] FGF21 was immobilized on a biosensor chip, and mixtures of a fixed concentration of βKlotho ectodomain with increasing concentrations of FGF21^C-tail were passed over the chip. […] Mixtures of a fixed concentration of βKlotho ectodomain with increasing concentrations of FGF19^C-tail were passed over a biosensor chip onto which FGF21 had been immobilized. […] The data shown in FIGS. 5B-G are representative of two to three independent experiments.

[4] = biological target: T1, 1:1 binary complex of FGFR1c …; assay: SPR competition; FGF21 immobilized, FGFR1c-βKlotho complex mixed with the chimera (FIGS. 15E, 15F)
Description: In the experiments shown in FIGS. 15A-15C, increasing concentrations of either an FGF21/FGF19 chimera or wild-type FGF21 were mixed with a fixed concentration of FGFR1c-βKlotho complex, and the mixtures were passed over a FGF21 chip. […] The data shown in FIGS. 15A-15C are representative of two to three independent experiments. Included in FIGS. 15E-15F are SPR sensorgrams obtained from injecting mixtures of the FGF21²⁹⁻¹⁹⁰/FGF19¹⁹⁷⁻²¹⁶ chimera with the FGFR1c-βKlotho complex over a FGF21 chip.
SPR experiments were performed on a Biacore 2000 instrument (Biacore AB), and all the protein-protein and protein-peptide interactions were studied at 25° C. in HBS-EP buffer (10 mM HEPES-NaOH, pH 7.4, 150 mM NaCl, 3 mM EDTA, 0.005% (v/v) polysorbate 20). Proteins were immobilized by amine coupling on flow channels of research grade CM5 chips (Biacore AB). Proteins were injected over a CM5 chip at a flow rate of 50 μl min⁻¹, and at the end of each protein injection (180 s), HBS-EP buffer (50 μl min⁻¹) was flowed over the chip to monitor dissociation for 180 s.

[5] = biological target: T2, ectodomain of murine βKlotho (F53 to …); assay: SPR competition; FGF21 immobilized, fixed βKlotho ectodomain mixed with increasing chimera (FIGS. 7B, 7C)
Method: Increasing concentrations of FGF21 were mixed with a fixed concentration of βKlotho ectodomain, and the mixtures were passed over a FGF21 chip. […] Increasing concentrations of FGF21²⁹⁻¹⁹⁰/FGF19¹⁹⁷⁻²¹⁶ chimera were mixed with a fixed concentration of βKlotho ectodomain, and the mixtures were passed over a FGF21 chip. […] The figure was created from the data shown in FIGS. 7A-B, which are representative of two independent experiments.
as §1, with “regeneration. […]” for “regeneration.”

[6] = biological target: FGFR1c endogenously expressed by HEK293 cells transiently transfected with murine βKlotho (UniProt P11362 22-822); assay: cell-based or functional assay
Sequence of FGFR1c endogenously expressed by HEK293 cells transiently transfected with murine βKlotho (P11362 22-822): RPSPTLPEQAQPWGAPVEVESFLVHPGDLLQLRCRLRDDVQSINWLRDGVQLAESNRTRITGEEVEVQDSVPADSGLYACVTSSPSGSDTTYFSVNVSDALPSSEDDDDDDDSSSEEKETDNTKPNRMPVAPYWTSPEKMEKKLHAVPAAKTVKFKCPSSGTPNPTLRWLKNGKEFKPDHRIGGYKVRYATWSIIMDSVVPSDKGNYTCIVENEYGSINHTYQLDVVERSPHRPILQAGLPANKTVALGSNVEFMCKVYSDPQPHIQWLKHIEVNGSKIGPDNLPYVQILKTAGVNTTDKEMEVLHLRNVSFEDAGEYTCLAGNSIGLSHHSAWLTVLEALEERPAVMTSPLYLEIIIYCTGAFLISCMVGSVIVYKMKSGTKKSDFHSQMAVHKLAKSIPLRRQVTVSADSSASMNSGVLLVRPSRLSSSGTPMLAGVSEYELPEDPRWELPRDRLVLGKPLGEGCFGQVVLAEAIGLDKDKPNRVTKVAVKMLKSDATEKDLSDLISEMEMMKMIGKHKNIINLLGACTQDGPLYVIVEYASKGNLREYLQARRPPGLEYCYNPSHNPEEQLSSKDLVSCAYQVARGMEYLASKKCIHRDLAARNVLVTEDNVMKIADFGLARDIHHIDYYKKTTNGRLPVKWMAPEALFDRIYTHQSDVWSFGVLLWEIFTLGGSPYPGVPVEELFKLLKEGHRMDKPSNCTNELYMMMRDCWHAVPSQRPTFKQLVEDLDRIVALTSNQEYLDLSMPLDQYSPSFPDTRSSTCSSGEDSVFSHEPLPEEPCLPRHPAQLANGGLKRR

- binding result [1]: binds
B1: Y207F single mutant of human FGF21 (SEQ ID NO: 232) (ligand)
chain: HPIPDSSPLLQFGGQVRQRYLYTDDAQQTEAHLEIREDGTVGGAADQSPESLLQLKALKPGVIQILGVKTSRFLCQRPDGALYGSLHFDPEACSFRELLLEDGYNVYQSEAHGLPLHLPGNKSPHRDPAPRGPARFLPLPGLPPALPEPPGILAPQPPDVGSSDPLSMVGPSQGRSPSFAS
notes: It was purified by the same protocol as the wild-type protein, which was H29 to S209; also called Y207F mutant of FGF21; single mutant FGF21

- binding result [2]: binds
B2: ligand-binding domain of human FGFR1c (D142 to R365 of SEQ ID NO: 221) (receptor)
chain: T1 sequence 1

- binding result [3]: binds
B3: C-terminal tail peptide of human FGF19 (M171 to K216 of SEQ ID NO: 1), fused to a 50 residue-long N-terminal tag including a hexahistidine tag (peptide)
peptide: MVPEEPEDLRGHLESDMFSSPLETDSMDPFGLVTGLEAVRSPSFEK
notes: Expressed in E. coli and purified from the soluble lysate fraction; also called FGF19^C-tail; FGF19 C-terminal tail peptide; not shown: 50 residue-long N-terminal tag including a hexahistidine tag

- binding result [4]: binds
- binding result [5]: binds
B4: FGF21^29-190/FGF19^197-216 chimera (H29 to S190 of human FGF21 and M197 to K216 of human FGF19; SEQ ID NO: 206) (ligand)
chain: HPIPDSSPLLQFGGQVRQRYLYTDDAQQTEAHLEIREDGTVGGAADQSPESLLQLKALKPGVIQILGVKTSRFLCQRPDGALYGSLHFDPEACSFRELLLEDGYNVYQSEAHGLPLHLPGNKSPHRDPAPRGPARFLPLPGLPPALPEPPGILAPQPPDVGSMDPFGLVTGLEAVRSPSFEK
notes: Chimera of human FGF21 and human FGF19, purified from E. coli inclusion bodies; also called FGF21^C-tail variant 19-45

- Induction of Egr1 protein expression (immunoblot, HEK293 cells co-expressing FGFR1c and βKlotho) [6]: 10 fold lower concentration than native FGF21
B5: FGF21^29-167/FGF19^169-216 chimera (H29 to L167 of human FGF21 and L169 to K216 of human FGF19; SEQ ID NO: 207) (ligand)
chain: HPIPDSSPLLQFGGQVRQRYLYTDDAQQTEAHLEIREDGTVGGAADQSPESLLQLKALKPGVIQILGVKTSRFLCQRPDGALYGSLHFDPEACSFRELLLEDGYNVYQSEAHGLPLHLPGNKSPHRDPAPRGPARFLPLLPMVPEEPEDLRGHLESDMFSSPLETDSMDPFGLVTGLEAVRSPSFEK
